Publication PMC5811034, “Xylem specific activation of 5’ upstream regulatory region of two NAC transcription factors (MusaVND6 and MusaVND7) in banana is regulated by SNBE-like sites”

B1: mSNBE PMusaVND6 (dsDNA)
DNA 1: CCTTCGTAAAAGGGCTCTTTAGGTTGG
DNA 2: CCAACCTAAAGAGCCCTTTTACGAAGG
B2: SNBE-like site PMusaVND6 (-220 to -201), 38 bp (dsDNA)
DNA 1: AATTCGATAGCCTTAGTTGTAGGGCTCAAGATTTTGGT
DNA 2: ACCAAAATCTTGAGCCCTACAACTAAGGCTATCGAATT
B3: mSNBE PMusaVND7 (dsDNA)
DNA 1: CCTTCGGAAAGCACTCATTTAGGTTGG
DNA 2: CCAACCTAAATGAGTGCTTTCCGAAGG
B4: SNBE-like site PMusaVND7 (-186 to -167), 38 bp (dsDNA)
DNA 1: AATTCGATAGCCTTTGGCGTGCACTCAAAGAAATTGGT
DNA 2: ACCAATTTCTTTGAGTGCACGCCAAAGGCTATCGAATT

How the values were obtained:
Test in all cases: EMSA; 10 mM Tris pH 8, 5 mM MgCl2, 10 mM KCl, 20 min (temperature not stated); 1.5% agarose gel
Details in all cases: protein: recombinant, chain copies: 2
[1] = biological target: T1, VND3 (MusaVND3) (Musa (banana), cultivar  for …, UniProt A0A0G2UF56 1-336)
T1 sequence: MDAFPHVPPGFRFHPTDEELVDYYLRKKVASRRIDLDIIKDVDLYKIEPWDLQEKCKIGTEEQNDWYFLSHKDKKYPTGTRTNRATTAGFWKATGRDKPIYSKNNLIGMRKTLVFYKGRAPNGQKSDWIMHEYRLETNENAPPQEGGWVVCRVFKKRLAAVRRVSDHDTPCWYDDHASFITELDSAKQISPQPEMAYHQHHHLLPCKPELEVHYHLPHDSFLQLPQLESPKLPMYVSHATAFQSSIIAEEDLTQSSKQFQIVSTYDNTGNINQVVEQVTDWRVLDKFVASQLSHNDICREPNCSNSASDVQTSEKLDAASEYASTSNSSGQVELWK

[2] = biological target: T2, VND1 (MusaVND1) (Musa (banana), cultivar  for …, UniProt A0A0U3BXB0 1-329)
T2 sequence: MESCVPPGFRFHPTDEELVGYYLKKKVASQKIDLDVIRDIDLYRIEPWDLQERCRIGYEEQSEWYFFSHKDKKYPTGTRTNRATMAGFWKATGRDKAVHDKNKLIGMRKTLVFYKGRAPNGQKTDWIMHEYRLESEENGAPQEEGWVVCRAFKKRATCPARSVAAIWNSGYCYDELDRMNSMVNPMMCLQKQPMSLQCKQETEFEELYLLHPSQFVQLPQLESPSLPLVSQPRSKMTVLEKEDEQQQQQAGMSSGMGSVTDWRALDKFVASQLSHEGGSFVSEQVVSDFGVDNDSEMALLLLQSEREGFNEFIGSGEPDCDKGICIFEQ

[3] = biological target: T3, VND2 (MusaVND2) (Musa (banana), cultivar  for …, UniProt A0A0G2UKP9 1-329)
T3 sequence: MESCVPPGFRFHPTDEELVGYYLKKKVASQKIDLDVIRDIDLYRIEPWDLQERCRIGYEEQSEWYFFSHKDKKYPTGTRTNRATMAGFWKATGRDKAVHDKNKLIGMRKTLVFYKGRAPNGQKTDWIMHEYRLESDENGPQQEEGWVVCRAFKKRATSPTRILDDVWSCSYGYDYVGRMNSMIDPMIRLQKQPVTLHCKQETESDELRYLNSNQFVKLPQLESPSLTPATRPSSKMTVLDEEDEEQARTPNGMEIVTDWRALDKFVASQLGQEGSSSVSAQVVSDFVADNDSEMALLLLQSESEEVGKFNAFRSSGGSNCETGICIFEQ

Binder | binding result [1] | binding result [2] | binding result [3] | further results
B1 | no binding | no binding | no binding | 
B2 |  |  |  | binding result ([1]; AGTTGTAGGGCTCAAGATT mutant): binds; binding result ([2]; AGTTGTAGGGCTCAAGATT mutant): binds; binding result ([3]; AGTTGTAGGGCTCAAGATT mutant): binds
B3 | no binding | no binding | no binding | 
B4 |  |  |  | binding result ([1]; TGGCGTGCACTCAAAGAAA mutant): binds; binding result ([2]; TGGCGTGCACTCAAAGAAA mutant): binds; binding result ([3]; TGGCGTGCACTCAAAGAAA mutant): binds
